In US9523084B2, “Phosphodeoxyribosyl transferase mutant enzymes and uses thereof” (Centre National De La Recherche Scientifique, priority 2012, dated 2016):

How the values were obtained:
[1] = Standard enzyme assay (HPLC): specific activities of PDT variants with natural purines and pyrimidines; type: biochemical; conditions: for Specific activity: donor 3 mM, acceptor 1 mM; for factor of enhancement of deoxyribose 5-phosphate transferase activity between C and A: upon substitution of F13 to arginine (PDTM3 from PDTM1, PDTM4 from PDTM2)
Method: (§1) The standard assay (“first protocol for enzyme assay”) for the different NDTs consisted of 5-15 μg of NDT in 50 mM MES buffer pH 6.0, dNxP (dNMP, or dNDP or dNTP) 3 mM and a base 1 mM in a total volume of 50 μL. Assays were incubated for 60 min at 37° C. The products of the reactions were analyzed each 7 min by Rapid resolution high performance liquid chromatography using a reverse-phase column (ZORBAX Eclipse XDB-C18 2.1*50 mm 1.8 μM) with a flow rate of 0.25 ml/min and a linear gradient of 1-12% CH3CN (2-25% CH3CN or 1-90% CH3CN) in 20 mM triethylammonium acetate, pH 7.5, buffer for 7 min. The low resolution mass spectra of the newly synthesized deoxyribonucleotides were obtained on an Agilent 1200 series LC/MS 6120 quadrupole system using an atmospheric electrospray ionization system.
Unless specifically mentioned, the results presented hereafter have been obtained by using the first protocol for performing the enzyme assay.

[2] = In vitro synthesis of deoxynucleotide analogues: specific activities; type: biochemical
Method: as §1
The donor concentration was 3 mM and the acceptor 1 mM except for dCTP 2 mM 5-BrU 1 mM and dAMP 2 mM 5-FU 1 mM. Activities are expressed in nanomoles of deoxynucleotides synthesized per min per mg of protein.

[3] = dAMP + 5-FU → A + 5-F-dUMP, dAMP 2 mM 5-FU 1 mM
[4] = dCMP + 2,6-D → C + 2,6-DMP, donor 3 mM, acceptor 1 mM
[5] = dCMP + 2,6-chloropurine → C + 2,6-dichloropurine 2′-deoxyribose 5′-monophosphate, donor 3 mM, acceptor 1 mM
[6] = dCMP + 5-BrU → C + 5-Br-dUMP, donor 3 mM, acceptor 1 mM
[7] = dCMP + 6-chloropurine → C + 6-chloropurine 2′-deoxyribose 5′-monophosphate, donor 3 mM, acceptor 1 mM

| Molecule | Specific activity ([1]; dAMP + C ⇄ dCMP + A) | Specific activity ([1]; dAMP + Hx ⇄ dIMP + A) | Specific activity ([1]; dCMP + A ⇄ dAMP + C) | Specific activity ([1]; dCMP + T ⇄ dTMP + C) | Specific activity ([1]; dGMP + A ⇄ dAMP + G) | other results |
| --- | --- | --- | --- | --- | --- | --- |
| PDTM3: NDT mutant R13 S92, SEQ ID NO:5 (protein, PDTM3 enzyme mutant) MPKKTIYFGAGWRTDRQNKAYKEAMEALKENPTIDLENSYVPLDNQYKGIRVDEHPEYLHDKVWATATYNNDLNGIKTNDIMLGVYIPDEESVGLGMELGYALSQGKYVLLVIPDEDYGKPINLMSWGVSDNVIKMSQLKDFNFNKPRFDFYEGAVY | 34.7 nanomoles of deoxynucleotides synthesized per min per mg of protein | 2 nanomoles of deoxynucleotides synthesized per min per mg of protein | 79.7 nanomoles of deoxynucleotides synthesized per min per mg of protein | 18.2 nanomoles of deoxynucleotides synthesized per min per mg of protein | 8.5 nanomoles of deoxynucleotides synthesized per min per mg of protein | fold lower activity than between C and A ([1]; transfer of deoxyribose 5-phosphate between A and C): two-fold; fold lower activity than between C and A ([1]; transfer of deoxyribose 5-phosphate between C and T): 4 fold; factor of enhancement of deoxyribose 5-phosphate transferase activity between C and A [1]: 50 |
| PDTT0: NDT mutant R13 G92 T93 S123, SEQ ID NO:8 (protein, PDTT0 enzyme mutant) MPKKTIYFGAGWRTDRQNKAYKEAMEALKENPTIDLENSYVPLDNQYKGIRVDEHPEYLHDKVWATATYNNDLNGIKTNDIMLGVYIPDEEGTGLGMELGYALSQGKYVLLVIPDEDYGKPISLMSWGVSDNVIKMSQLKDFNFNKPRFDFYEGAVY | 23.7 nanomoles of deoxynucleotides synthesized per min per mg of protein | <0.1 nanomoles of deoxynucleotides synthesized per min per mg of protein | 46.3 nanomoles of deoxynucleotides synthesized per min per mg of protein | <0.1 nanomoles of deoxynucleotides synthesized per min per mg of protein | 49 nanomoles of deoxynucleotides synthesized per min per mg of protein | Specific activity ([1]; dCDP + A ⇄ dADP + C): <0.1 nanomoles of deoxynucleotides synthesized per min per mg of protein; Specific activity ([1]; dCTP + A ⇄ dATP + C): <0.1 nanomoles of deoxynucleotides synthesized per min per mg of protein |
| PDTM4: NDT mutant R13 S92 S123, SEQ ID NO:6 (protein, PDTM4 enzyme mutant) MPKKTIYFGAGWRTDRQNKAYKEAMEALKENPTIDLENSYVPLDNQYKGIRVDEHPEYLHDKVWATATYNNDLNGIKTNDIMLGVYIPDEESVGLGMELGYALSQGKYVLLVIPDEDYGKPISLMSWGVSDNVIKMSQLKDFNFNKPRFDFYEGAVY | 77.6 nanomoles of deoxynucleotides synthesized per min per mg of protein | <0.1 nanomoles of deoxynucleotides synthesized per min per mg of protein | 170 nanomoles of deoxynucleotides synthesized per min per mg of protein | 52 nanomoles of deoxynucleotides synthesized per min per mg of protein | 57 nanomoles of deoxynucleotides synthesized per min per mg of protein | factor of enhancement of deoxyribose 5-phosphate transferase activity between C and A [1]: 50; activity relative to PDTM3 ([1]; whatever the couple of bases tested): two times more active than PDTM3; Specific activity [2, 3]: 43 nanomoles of deoxynucleotides synthesized per min per mg of protein; Specific activity [2, 4]: 96 nanomoles of deoxynucleotides synthesized per min per mg of protein; Specific activity [2, 5]: 32 nanomoles of deoxynucleotides synthesized per min per mg of protein; Specific activity [2, 6]: 35 nanomoles of deoxynucleotides synthesized per min per mg of protein; Specific activity [2, 7]: 24 nanomoles of deoxynucleotides synthesized per min per mg of protein |
| PDTM5: NDT mutant Q13 S92 S123, SEQ ID NO:7 (protein, PDTM5 enzyme mutant) MPKKTIYFGAGWQTDRQNKAYKEAMEALKENPTIDLENSYVPLDNQYKGIRVDEHPEYLHDKVWATATYNNDLNGIKTNDIMLGVYIPDEESVGLGMELGYALSQGKYVLLVIPDEDYGKPISLMSWGVSDNVIKMSQLKDFNFNKPRFDFYEGAVY | 206 nanomoles of deoxynucleotides synthesized per min per mg of protein | <0.1 nanomoles of deoxynucleotides synthesized per min per mg of protein | 296 nanomoles of deoxynucleotides synthesized per min per mg of protein | 1.7 nanomoles of deoxynucleotides synthesized per min per mg of protein | 81 nanomoles of deoxynucleotides synthesized per min per mg of protein | Specific activity [2, 3]: 47 nanomoles of deoxynucleotides synthesized per min per mg of protein; Specific activity [2, 4]: 78 nanomoles of deoxynucleotides synthesized per min per mg of protein; Specific activity [2, 5]: 19 nanomoles of deoxynucleotides synthesized per min per mg of protein; Specific activity [2, 6]: 26 nanomoles of deoxynucleotides synthesized per min per mg of protein; Specific activity [2, 7]: 15 nanomoles of deoxynucleotides synthesized per min per mg of protein |
| PDTM2: NDT double mutant D92S, N123S, SEQ ID NO:4 (protein, PDTM2 enzyme mutant) MPKKTIYFGAGWFTDRQNKAYKEAMEALKENPTIDLENSYVPLDNQYKGIRVDEHPEYLHDKVWATATYNNDLNGIKTNDIMLGVYIPDEESVGLGMELGYALSQGKYVLLVIPDEDYGKPISLMSWGVSDNVIKMSQLKDFNFNKPRFDFYEGAVY |  |  | 1.7 nanomoles of deoxynucleotides synthesized per min per mg of protein |  |  |  |
| PDTT1: NDT mutant R13 G92 T93 S123 K157, SEQ ID NO:9 (protein, PDTT1 enzyme mutant) MPKKTIYFGAGWRTDRQNKAYKEAMEALKENPTIDLENSYVPLDNQYKGIRVDEHPEYLHDKVWATATYNNDLNGIKTNDIMLGVYIPDEEGTGLGMELGYALSQGKYVLLVIPDEDYGKPISLMSWGVSDNVIKMSQLKDFNFNKPRFDFYEGAVK | 5 nanomoles of deoxynucleotides synthesized per min per mg of protein | <0.1 nanomoles of deoxynucleotides synthesized per min per mg of protein | 78 nanomoles of deoxynucleotides synthesized per min per mg of protein | <0.1 nanomoles of deoxynucleotides synthesized per min per mg of protein | 32 nanomoles of deoxynucleotides synthesized per min per mg of protein | Specific activity ([1]; dADP + C ⇄ dCDP + A): 12 nanomoles of deoxynucleotides synthesized per min per mg of protein; Specific activity ([1]; dADP + Hx ⇄ dIDP + A): <0.1 nanomoles of deoxynucleotides synthesized per min per mg of protein; Specific activity ([1]; dATP + C ⇄ dCTP + A): 1 nanomoles of deoxynucleotides synthesized per min per mg of protein; Specific activity ([1]; dATP + Hx ⇄ dITP + A): <0.1 nanomoles of deoxynucleotides synthesized per min per mg of protein; Specific activity ([1]; dCDP + A ⇄ dADP + C): 31 nanomoles of deoxynucleotides synthesized per min per mg of protein; Specific activity ([1]; dCDP + U ⇄ dUDP + C (U used as acceptor base instead of T)): 6 nanomoles of deoxynucleotides synthesized per min per mg of protein; Specific activity ([1]; dCTP + A ⇄ dATP + C): 10 nanomoles of deoxynucleotides synthesized per min per mg of protein; Specific activity ([1]; dCTP + T ⇄ dTTP + C): 1 nanomoles of deoxynucleotides synthesized per min per mg of protein; Specific activity ([1]; dGDP + A ⇄ dADP + G): 15 nanomoles of deoxynucleotides synthesized per min per mg of protein; Specific activity ([1]; dGTP + A ⇄ dATP + G): 25 nanomoles of deoxynucleotides synthesized per min per mg of protein |
| NDTWT: wild-type nucleoside deoxyribosyltransferase of Lactobacillus leichmannii, SEQ ID NO:1 (F13E91D92V93N123Y157) (protein, listed as Lactobacillus leichmannii) MPKKTIYFGAGWFTDRQNKAYKEAMEALKENPTIDLENSYVPLDNQYKGIRVDEHPEYLHDKVWATATYNNDLNGIKTNDIMLGVYIPDEEDVGLGMELGYALSQGKYVLLVIPDEDYGKPINLMSWGVSDNVIKMSQLKDFNFNKPRFDFYEGAVY |  |  | 0.1 nanomoles of deoxynucleotides synthesized per min per mg of protein |  |  |  |
| PDTM1: NDT single mutant D92S, SEQ ID NO:3 (protein, PDTM1 enzyme mutant) MPKKTIYFGAGWFTDRQNKAYKEAMEALKENPTIDLENSYVPLDNQYKGIRVDEHPEYLHDKVWATATYNNDLNGIKTNDIMLGVYIPDEESVGLGMELGYALSQGKYVLLVIPDEDYGKPINLMSWGVSDNVIKMSQLKDFNFNKPRFDFYEGAVY |  |  | 1.8 nanomoles of deoxynucleotides synthesized per min per mg of protein |  |  |  |
